Laboratory results published in PMC6533321 (EJNMMI Research, 2019).
Residues, ends and D or L forms follow the SMILES beside them.

What was measured:
normal liver = settings: in vivo; cited from earlier work
[1] = tested on: patient with a well-differentiated NET; test: PET/CT in a patient with well-differentiated NET; settings: human, in vivo
Experimental: Despite octreotide therapy, the disease was progressing, and in 2015, the patient was treated with peptide receptor radionuclide therapy (PRRT), administering 5 GBq of [^90Y]Y-DOTA-TOC. […] Written informed consent was obtained from the patient in accordance with paragraph 37 of the updated Declaration of Helsinki, ‘Unproven Interventions in Clinical Practice’, and in accordance with the German Medical Products Act AMG §13 2b.

[2] = tested on: MPC-mCherry tumour-bearing NMRI-nude mice; test: Ex vivo biodistribution 60 min p.i.; settings: female, mouse, in vivo, iv, 1 h
Experimental: (§1) A number of 2 × 10^6 MPC-mCherry cells were transplanted subcutaneously into the right shoulder of female NMRI-nude mice (8 to 10 weeks old, RjOrl:NMRI-Foxn1^nu /Foxn1^nu, Janvier Labs). […] Animals were sacrificed at 60 min post-injection (p.i.). […] The activity of the tissue samples was decay-corrected and calibrated by comparing the counts in tissue with the counts in aliquots of the injected radiotracer that had been measured in the γ-counter at the same time. The activity in the selected organs was expressed as percent-injected activity per organ (%IA) and the activity concentration in tissues and organs as standardised uptake value (SUV in [MBq activity/g tissue]/[MBq injected activity/g body weight]). Values are quoted as mean ± standard deviation for each group of animals.

[3] = Ex vivo biodistribution 60 min p.i.; settings: female, NMRI-nude, mouse, in vivo, iv, total radioactivity
Experimental: as §1

hSST2 = target: T1, hSST2 (Homo sapiens, UniProt P30874); test: Competition binding against [^125I-Tyr^25]LTT-SS28 in HEK293-hSST2 cell membranes; settings: mean ± sd, read-out: IC50 (displacement of [^125I-Tyr^25]LTT-SS28)
T1 construct: expressed in transfected cells; donated by Prof; S. Schultz, Jena
Experimental: (§2) The HEK293 cell line was transfected to stably express each of the hSST2/3/5 and the resultant HEK293-hSST2/3/5 cells used for receptor affinity assessments were donated by Prof. S. Schultz (Institute of Pharmacology and Toxicology, University Hospital, Friedrich Schiller University Jena, Germany). Cells were cultured at 37 °C and 5% CO2 in Dulbecco’s modified Eagle’s medium containing 10% fetal bovine serum, 100 U/mL penicillin, […] G418, as previously described. Culture reagents were from Gibco BRL, Life Technologies, and Biochrom KG Seromed.
(§3) [^125I-Tyr^25]LTT-SS28 served as radioligand and LTT-SS28 ([Leu^8,DTrp^22,Tyr^25]SS28) as reference compound [28, 30, 32]. Briefly, radioligand (70 μL, 50 pM corresponding to ≈ 40,000 cpm), test peptide (30 μL solution of increasing concentrations, 10^− 5–10^− 13 M), and membrane homogenates (200 μL) were added to each assay tube (total volume of 300 μL in binding solution: 50 mM HEPES pH 7.4, 1% BSA, 5.5 mM MgCl2, 35 μM bacitracin) in triplicates for each concentration point. Samples were incubated for 60 min at 22 °C in an Incubator-Orbital Shaker unit (MPM Instr. SrI). […]

hSST3 = target: T2, hSST3 (Homo sapiens, UniProt P32745); test: Competition binding against [^125I-Tyr^25]LTT-SS28 in HEK293-hSST3 cell membranes; settings: mean ± sd, read-out: IC50 (displacement of [^125I-Tyr^25]LTT-SS28)
T2 construct: expressed in transfected cells; donated by Prof; S. Schultz, Jena
Experimental: as §2
[^125I-Tyr^25]LTT-SS28 served as radioligand and LTT-SS28 ([Leu^8,DTrp^22,Tyr^25]SS28) as reference compound [28, 30, 32]. Briefly, radioligand (70 μL, 50 pM corresponding to ≈ 40,000 cpm), test peptide (30 μL solution of increasing concentrations, 10^− 5–10^− 13 M), and membrane homogenates (200 μL) were added to each assay tube (total volume of 300 μL in binding solution: 50 mM HEPES pH 7.4, 1% BSA, 5.5 mM MgCl2, 35 μM bacitracin) in triplicates for each concentration point. Samples were incubated for 60 min at 22 °C in an Incubator-Orbital Shaker unit (MPM Instr. SrI). […] Filters were collected, and their activity measured in a γ-counter (automated well-type multisample gamma counter; NaI(Tl) 3″ crystal, Canberra Packard Auto-Gamma 5000 series instrument).

hSST5 = hSST5 (Homo sapiens, UniProt P35346); test: Competition binding against [^125I-Tyr^25]LTT-SS28 in HEK293-hSST5 cell membranes; settings: mean ± sd, read-out: IC50 (displacement of [^125I-Tyr^25]LTT-SS28)
Experimental: as §2, §3

T1 sequence (P30874 whole entry): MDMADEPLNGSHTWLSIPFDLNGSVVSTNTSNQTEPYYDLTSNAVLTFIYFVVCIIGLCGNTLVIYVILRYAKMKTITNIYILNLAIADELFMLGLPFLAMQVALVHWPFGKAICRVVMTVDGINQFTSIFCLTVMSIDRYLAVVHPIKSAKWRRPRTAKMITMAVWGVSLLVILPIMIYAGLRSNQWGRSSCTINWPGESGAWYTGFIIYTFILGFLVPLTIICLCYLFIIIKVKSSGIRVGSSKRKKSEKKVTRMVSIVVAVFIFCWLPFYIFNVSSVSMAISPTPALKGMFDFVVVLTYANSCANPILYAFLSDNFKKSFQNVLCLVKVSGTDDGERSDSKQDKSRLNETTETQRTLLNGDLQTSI
hSST5, sequence (P35346 whole entry): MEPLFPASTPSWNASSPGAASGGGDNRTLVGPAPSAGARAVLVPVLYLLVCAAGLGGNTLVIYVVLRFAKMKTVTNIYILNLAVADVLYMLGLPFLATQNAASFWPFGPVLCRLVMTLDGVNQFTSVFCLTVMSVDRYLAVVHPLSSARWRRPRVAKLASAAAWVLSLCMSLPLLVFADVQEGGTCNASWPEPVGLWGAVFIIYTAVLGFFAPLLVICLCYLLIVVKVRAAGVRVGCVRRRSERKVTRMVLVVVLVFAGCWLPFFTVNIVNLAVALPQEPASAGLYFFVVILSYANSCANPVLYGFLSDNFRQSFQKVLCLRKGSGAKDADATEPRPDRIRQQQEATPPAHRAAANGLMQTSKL
T2 sequence (P32745 whole entry): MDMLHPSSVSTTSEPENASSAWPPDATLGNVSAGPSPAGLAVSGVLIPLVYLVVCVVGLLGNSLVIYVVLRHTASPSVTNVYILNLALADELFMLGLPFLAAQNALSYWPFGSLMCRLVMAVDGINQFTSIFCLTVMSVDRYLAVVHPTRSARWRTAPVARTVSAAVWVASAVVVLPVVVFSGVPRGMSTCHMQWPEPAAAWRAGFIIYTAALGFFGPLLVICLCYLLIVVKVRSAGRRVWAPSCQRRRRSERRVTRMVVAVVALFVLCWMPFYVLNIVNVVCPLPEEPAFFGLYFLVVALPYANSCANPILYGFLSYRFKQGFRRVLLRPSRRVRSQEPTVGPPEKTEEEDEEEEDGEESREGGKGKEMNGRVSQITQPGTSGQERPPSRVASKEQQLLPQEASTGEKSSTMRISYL

C[C@@H](O)[C@@H]1NC(=O)[C@H](CCCCN)NC(=O)[C@@H](Cc2c[nH]c3ccccc23)NC(=O)[C@H](Cc2ccc(O)cc2)NC(=O)[C@@H](NC(=O)[C@@H](Cc2ccccc2)NC(=O)CN2CCN(CC(=O)O)CCN(CC(=O)O)CCN(CC(=O)O)CC2)CSSC[C@@H](C(=O)N[C@H](CO)[C@@H](C)O)NC1=O [[^68Ga]Ga-DOTA-TOC, metal not drawn]
SUVmax of the liver, previous value reported (normal liver): 12.8 ± 3.6 | SUV, blood [1]: 2.0 SUV | SUV, liver [1]: 23.1 SUV | SUV, pituitary [1]: 23.7 SUV | SUV, target lesion [1]: 71.1 SUV | Intestine uptake [2]: 2.11±1.33 %IA | Tumour radioactivity concentration [2]: 4.52 ± 1.96 SUV | Tumour uptake [2]: 2.40±1.94 %IA | SUV at 1 h ([3]; Blood radioactivity concentration): 0.06 ± 0.01 SUV | tissue uptake dose at 1 h ([3]; Brain uptake): 0.02 ± 0.01 %ID | tissue uptake dose at 1 h ([3]; Femur uptake): 0.04 ± 0.04 %ID | tissue uptake dose at 1 h ([3]; Kidneys uptake): 3.34 ± 0.87 %ID | tissue uptake dose at 1 h ([3]; Liver uptake): 0.45 ± 0.09 %ID | tissue uptake dose at 1 h ([3]; Lung uptake): 0.12 ± 0.01 %ID | tissue uptake dose at 1 h ([3]; Ovaries uptake): 0.02 ± 0.01 %ID | tissue uptake dose at 1 h ([3]; Pancreas uptake): 0.42 ± 0.06 %ID | tissue uptake dose at 1 h ([3]; Stomach uptake): 1.34 ± 0.39 %ID | tissue uptake dose at 1 h ([3]; Thyroid uptake): 0.01 %ID | dose excreted at 1 h ([3]; Urine calc.): 83.3 ± 3.73%

CC(C)C[C@H](NC(=O)[C@H](C)NC(=O)[C@@H]1CCCN1C(=O)[C@H](CC(N)=O)NC(=O)[C@H](CO)NC(=O)[C@H](CC(N)=O)NC(=O)[C@H](C)NC(=O)[C@@H](N)CO)C(=O)N[C@@H](C)C(=O)N1CCC[C@H]1C(=O)N[C@@H](CCCN=C(N)N)C(=O)N[C@@H](CCC(=O)O)C(=O)N[C@@H](CCCN=C(N)N)C(=O)N[C@@H](CCCCN)C(=O)N[C@@H](C)C(=O)NCC(=O)N[C@H]1CSSC[C@@H](C(=O)O)NC(=O)[C@H](CO)NC(=O)[C@H]([C@@H](C)O)NC(=O)[C@H](Cc2ccc(O)cc2)NC(=O)[C@H]([C@@H](C)O)NC(=O)[C@H](CCCCN)NC(=O)[C@@H](Cc2c[nH]c3ccccc23)NC(=O)[C@H](Cc2ccccc2)NC(=O)[C@H](Cc2ccccc2)NC(=O)[C@H](CC(N)=O)NC(=O)[C@H](CCCCN)NC1=O [LTT-SS28] (HELM PEPTIDE1{S.A.N.S.N.P.A.L.A.P.R.E.R.K.A.G.C.K.N.F.F.[dW].K.T.Y.T.S.C}$PEPTIDE1,PEPTIDE1,17:R3-28:R3$$$V2.0)
IC50 (hSST2): 50 ± 10 pM | IC50 (hSST3): 90 ± 10 pM | IC50 (hSST5): 170 ± 30 pM
